Source: patent US20200393470A1 (Regeneron, published 2020)
Each block holds one binder with its values, some of them ahead of it.

Columns and labels:
[1] = target: T1, human ANGPTL8 dimer protein with mouse Fc tag (human, UniProt Q6UXH0 22-198); assay: sandwich ELISA, capture mAb, dimer (mFc) standard
T1 construct: also called hANGPTL8.mFc; dimer form of human ANGPTL8; not shown: mouse Fc tag
T1 sequence: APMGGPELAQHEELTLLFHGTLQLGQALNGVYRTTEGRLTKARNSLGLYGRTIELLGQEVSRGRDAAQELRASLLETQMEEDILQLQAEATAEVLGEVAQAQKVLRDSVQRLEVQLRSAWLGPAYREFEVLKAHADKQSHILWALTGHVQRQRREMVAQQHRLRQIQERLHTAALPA
Description: (§1) Proteins and mAbs stored at −80° C. were thawed and kept on ice, as they were needed. The wells of the ELISA plate were coated with capture mAb, at a concentration of 4 μg/mL in PBS, and a volume of 100 μL/well. The plate was covered with a plate sealer, and stored at 4° C. overnight (approximately 18 hours). The wells of the plate were then washed with 350 μL/well wash buffer (0.1% Tween-20 in PBS), for a total of 3 washes, using an automated plate washer. Excess wash remnants were removed by inverting and tapping the plate against clean paper towels. Blocking buffer (1% Fraction V BSA in PBS) was added at 300 μL/well. The plate was covered with a plate sealer, and placed on a plate shaker at room temperature, shaking at 300 rpm for a minimum of 1 hour.
(§2) After the blocking period, the wells of the ELISA plate were washed again, and excess wash remnants were removed, as previously described. The standards and the diluted samples were added to the plate in duplicate, with 100 μL/well. The plate was covered with a plate sealer and placed on a plate shaker at room temperature, shaking at 500 rpm for 2 hours. The wells of the ELISA plate were washed again, and excess wash remnants were removed, as previously described. The detection mAb was added at a concentration of 400 ng/mL in assay diluent (1% Fraction V BSA/0.1% Tween-20 in PBS), with 150 μL/well. […]

human ANGPTL8 [2] = target: T2, human ANGPTL8 (human, UniProt Q6UXH0 22-198); assay: sandwich ELISA on ex vivo serum samples
T2 construct: also called hANGPTL8; Angiopoietin-like protein 8
T2 sequence: T1 sequence
Description: as §1, §2

human ANGPTL8 [3] = target: T2, human ANGPTL8; assay: immunoprecipitation from cell conditioned media, Western blot
Description: The selection process involved performing a series of immunoprecipitations (IPs), in which each mAb was incubated with cell conditioned media (CM) containing the human ANGPTL8 protein. A resin that identifies human IgG4 was then applied to the mAb/CM mixtures. The resin beads targeted the mAbs, binding the mAb-human ANGPTL8 complex. A series of Western blots probing for human ANGPTL8 were run on the various fractions of the IPs, and anti-human ANGPTL8 mAbs were selected based on high human ANGPTL8 expression in the IP fractions, with low human ANGPTL8 expression in the unbound fractions.

[4] = target: T1, human ANGPTL8 dimer protein with mouse …; assay: sandwich ELISA, biotinylated detection mAb, dimer (mFc) standard
Description: as §1, §2

B1: H4H15347P (antibody, human IgG4, V domains shown)
VH: EVQLVESGGGLVQPGGSLRLSCAASGFTFRNYAMNWARQAPGKGLEWVSGITGSGGATYYADSVKGRFTISRENSKNTLFLQMDTLRAEDTAVYYCAKDRRYFPTSGGPQWGQGTLVTVSS
VL: DIVMTQSPLSLPVTPGEPASISCRSSRSLLHSSGYNYLDWYLQKPGQSPQLLLYLGSNRASGVPDRFSGSGSGTYFTLKISRVDAEDVGVYYCMQALQTPWTFGQGTKVEIK
notes: Capture mAb of the final ELISA; also called anti-human C19orf80 (ANGPTL8) (H4H15347P); biotinylated-H4H15347P
binding result [1]: binds | binding result (human ANGPTL8 [2]): binds

B2: H4H15361P2 (antibody, human IgG4, V domains shown)
VH: EVQLVESGGGLVQPGRSLRLSCTASGFSFGDNAMGWVRQAPGKGLEWVSFIRRKASGGTTEYAASVKGRFTISRDDSKSIAYLQMNSLKTEDTGVYYCTRGGAVYGYWGQGTLVTVSS
VL: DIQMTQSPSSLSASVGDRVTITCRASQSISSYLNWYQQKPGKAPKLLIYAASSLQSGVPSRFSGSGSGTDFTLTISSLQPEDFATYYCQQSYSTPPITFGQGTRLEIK
notes: also called anti-human C19orf80 (ANGPTL8) (H4H15361P2); biotinylated-H4H15361P2
binding result [1]: binds | binding result (human ANGPTL8 [2]): binds

Other lines, results leading:

binding result (human ANGPTL8 [3]): binds
B3: H4H15341P (antibody, human IgG4, V domains shown)
VH: EVQLVESGGGLVQPGGSLRLSCAASGFTFNNHEMNWVRQAPGKGLEWVSYISSSGNTVTYADFLKGRFTISRDNAKNSLFLQMNSLRDEDTAVYYCARDHLSGTSPLSYWGQGTLVTVSS
VL: DIQMTQSPSSLSASVGDRVTITCQASQDINNYLNWFQQKPGKAPKLLIFDASNLETGVPSRFSGSGSGTDFTFTISSLQPEDIATYFCQQYENLPYTFGQGTKLEIK
notes: also called biotinylated-H4H15341P

binding result [4]: binds | binding result (human ANGPTL8 [3]): binds
B4: H4H15318P (antibody, V domains shown)
VH: QVQLVESGGGVVQPGRSLRLSCTASGFTFGNFGIHWVRQAPGKGLEWVAVISYDGTDKFYADPVKGRFIISRDNSMNILYLQMNSLRAEDTAVYYCAKDGEMELRGYYYYYGMDVWGQGTTVTVSS
VL: DIQMTQSPSSVSASVGDRVTITCRASQGINTWLAWYQQKPGTAPKLLIFAASSLESGVPSRFSGSGFGTDFTLTISSLQSEDLATYFCQQVHSPPYTFGQGTKLEIK
notes: Used unlabelled in the immunoprecipitation and as capture mAb, and biotinylated as detection mAb in the sandwich ELISA; also called biotin-H4H15318P; biotinylated anti-human C19orf80 (ANGPTL8) (biotin-H4H15318P)
